Test results published in patent US6353153B1, “Enhanced transport with a plastid membrane transport protein” (priority 1996, dated 2002).

Experiments:
Assay in all cases: Seed size of transgenic plants carrying the CaMV-Bce44B-NOS transgene
Type in all cases: in vivo
Details in all cases: primary generation of transgenic plants
[1] = tested on: Brassica napus
From the text: (§1) Transgenic plants (Brassica napus, Arabidopsis thaliana and Lycopersicon esculentum) with altered plastid protein transport capacity were produced by introducing a transgene construct consisting of DNA encoding the Bce44B protein and a 5′ untranslated region immediately upstream of the Bce44B coding sequence. Expression of the construct was obtained by linking the cauliflower mosaic virus 35S promoter (Odell, J. T. et al. (1985) Nature 313:810) upstream. Transcriptional termination was facilitated by the gene encoding nopaline synthase (NOS) found in Agrobacterium Ti plasmids or their derivatives such as pBI101 (Clontech). Construction of the 35S CAMV-Bce44B-NOS transgene construct is diagrammed in FIG. 6.
(§2) Agrobacterium strains containing the pEND4K-CAMV-Bce44B-NOS plasmid were used to transform plants following a leaf disc transformation protocol, such as the one described by Horsch et al. (1985) Science 227:1229), or by in planta methods which can include the seed transformation protocol reported by Feldmann and Marks (1987) Mol. Gen. Genet. […]

[2] = tested on: Lycopersicon esculentum
From the text: as §1, §2

[3] = tested on: Arabidopsis thaliana
From the text: as §1
For the seed transformation protocol (Feldmann, K., (1992) In: Methods in Arabidopsis Research (eds. C. Koncz, N. H. Chua, J. Schell) pp 274-289), 2.4 grams of Arabidopsis thaliana (ecotype Wassilewskija) seeds were surface sterilized for 8 minutes in 5.25% (wlv) sodium hypochlorite containing 0.15% (v/v) Tween 20, then rinsed 6-7 times with sterile water. The seeds were apportioned among 40 125 ml flasks containing 40 ml cocultivation medium (CCM) (1×MS salts, 40 g/l sucrose, 10 mg/l thiamine, […] pyridoxine, […] nicotinic acid and 100 mg/l inositol, pH 6.0 with KOH). […]

Measured: seed size relative to wildtype counterparts or pEND4K-only control plants

B1: Bce44B: plastid transport protein, Brassica napus 44 kDa chloroplast envelope protein, member of Com44/Cim44, encoded by SEQ ID NO:1 (protein)
chain: MQTAMKTMMNQMNTQNSQFNNPGFPTGAGAGAGSPFPFPFPPQTSPTTSPFQPQSQSSGATVDLTATKVDRPPVSKPQPTPIPPTKSIEVYKPSVVVEENKAMKEEKNYAFEDVSPEETTKESPFSNYEEVSETSAPKETRLFDDVLQNGAAPANGATASDVFQSLGAGKGWAGGSVEVLEKMIEYPTFQKMLYPHLPEEMRNPESFKWVRKNPQYRQQLQDMLNNMSESGEWDKRMTETLKNFDPNSPEVKQGFDQLGLTPEEVISKIMENPDVSMAFQNPRVEAALMDCSENPMNIMKYQNDKEVMDVFNKISQLFPGLTG
approximately twice: all assays above
